Patent US20260232827A1 (Zymeworks, published 2026)
Changes are numbered by the printed parent chain.

Assays:
[1] = target: T1, human sodium-dependent phosphate transporter 2B (NaPi2b) (human, UniProt O95436 1-690); test: flow cytometry, IGROV-1 cells (endogenous NaPi2b); parameters: unit not given here
T1 construct: UniProt ID is given as 095436 [sic]; also called hNaPi2b; Hu NaPi2b
T1 sequence: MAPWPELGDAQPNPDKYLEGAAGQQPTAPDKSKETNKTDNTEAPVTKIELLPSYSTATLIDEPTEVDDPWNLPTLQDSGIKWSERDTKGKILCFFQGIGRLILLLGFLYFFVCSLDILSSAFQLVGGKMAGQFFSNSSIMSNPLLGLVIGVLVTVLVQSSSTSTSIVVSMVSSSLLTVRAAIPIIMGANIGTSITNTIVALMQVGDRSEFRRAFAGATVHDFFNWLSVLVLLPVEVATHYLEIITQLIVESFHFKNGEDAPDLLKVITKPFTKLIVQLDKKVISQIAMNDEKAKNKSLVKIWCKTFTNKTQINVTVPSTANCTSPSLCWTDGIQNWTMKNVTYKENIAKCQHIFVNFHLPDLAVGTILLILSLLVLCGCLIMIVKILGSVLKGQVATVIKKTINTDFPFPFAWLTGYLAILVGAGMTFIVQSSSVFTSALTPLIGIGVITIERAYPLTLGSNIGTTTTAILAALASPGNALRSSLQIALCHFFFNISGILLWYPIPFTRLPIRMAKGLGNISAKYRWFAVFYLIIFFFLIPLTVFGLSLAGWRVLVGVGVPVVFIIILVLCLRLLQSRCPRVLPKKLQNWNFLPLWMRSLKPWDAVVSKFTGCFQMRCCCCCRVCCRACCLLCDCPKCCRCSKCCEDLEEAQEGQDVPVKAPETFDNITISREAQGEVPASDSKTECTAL

[2] = target: T1, human sodium-dependent phosphate …; test: flow cytometry, IGROV-1 cells (endogenous NaPi2b); apparent Kd
Protocol: (§1) Briefly, cells were seeded at 50,000 cells/well in conical-bottom 96-well plates and treated with test antibody for 24 hours at 4° C. to prevent internalization. […] Following incubation and washing, fluorescence was detected by flow cytometry on a BD LSRFortessa™ Cell Analyzer (BD Biosciences, Franklin Lake, NJ) with 1,000 minimum events collected per well.

[3] = target: T1, human sodium-dependent phosphate …; test: flow cytometry on IGROV-1 cells (endogenous NaPi2b), 24 h at 4 C, anti-human IgG Fc AF647
Protocol: as §1

[4] = target: T2, KLH (Sigma-Aldrich, H8283); test: non-specific ELISA, KLH coated, antibody 100 nM
T2 construct: Coating of the non-specific ELISA
Protocol: NS-ELISA was used to measure the propensity of the antibodies to bind to a range of biomolecules to emulate the undesirable non-specific interactions to biological matrices in vivo as described below.
NS-ELISA was carried out in Corning® 96-well EIA/RIA Easy Wash™ Clear Flat Bottom Polystyrene High Bind Microplate coated overnight at 4° C. with 50 μL of Heparin (Sigma, H3149) diluted with 50 mM sodium carbonate pH 9.6 to a final concentration of 250 μg/mL. The plate was incubated for 2 days at room temperature, wells that were coated with heparin were not covered to allow air dry. […] 50 μL each of insulin, KLH, dsDNA and ssDNA were added to a 96 well plate, followed by the incubation at 37° C. for 2 h. The coating materials were removed, and the plate was blocked with 200 μL of Gibco™ PBS pH7.4, 0.1% Tween®20, and incubated for 1 h at room temperature with shaking at 200 rpm. The plate was washed 3 times with Gibco™ PBS pH7.4, 0.1% Tween 20. 50 μL of each mAb at 100 nM (15 mg/mL) in Gibco™ PBS pH 7.4, 0.1% Tween®20 was added in duplicate to the wells and incubated for 1 h at room temperature with shaking at 200 rpm. […] Plates were incubated for 1 h at room temperature, with shaking at 200 rpm. The plate was washed three times with Gibco™ PBS pH7.4, 0.1% Tween 20, and 100 μL of TMB substrate (Cell Signaling Technology©, 7004P6) added to each well. […] Binding scores were calculated as the ratio of the ELISA signal of the antibody to the signal of a well containing buffer instead of the primary antibody.

[5] = target: T1, human sodium-dependent phosphate …; test: flow cytometry on IGROV-1 cells (endogenous NaPi2b), 24 h at 4 C, anti-human IgG Fc AF647; remark: listed apart in the source
Protocol: (§2) Following incubation and washing, fluorescence was detected by flow cytometry on a BD LSRFortessa™ Cell Analyzer (BD Biosciences, Franklin Lake, NJ) with 1,000 minimum events collected per well.

[6] = target: T1, human sodium-dependent phosphate …; test: flow cytometry on OVCAR-3 cells (endogenous NaPi2b), 24 h at 4 C, anti-human IgG Fc AF647
Protocol: as §2

mouse NaPi2b = target: T3, mouse NaPi2b (mouse, UniProt Q9DBP0 1-697); test: flow cytometry on HEK293-6e cells transfected with mouse NaPi2b, 24 h at 4 C, anti-human IgG Fc AF647
T3 construct: also called Ms NaPi2b; CL #13476
T3 sequence: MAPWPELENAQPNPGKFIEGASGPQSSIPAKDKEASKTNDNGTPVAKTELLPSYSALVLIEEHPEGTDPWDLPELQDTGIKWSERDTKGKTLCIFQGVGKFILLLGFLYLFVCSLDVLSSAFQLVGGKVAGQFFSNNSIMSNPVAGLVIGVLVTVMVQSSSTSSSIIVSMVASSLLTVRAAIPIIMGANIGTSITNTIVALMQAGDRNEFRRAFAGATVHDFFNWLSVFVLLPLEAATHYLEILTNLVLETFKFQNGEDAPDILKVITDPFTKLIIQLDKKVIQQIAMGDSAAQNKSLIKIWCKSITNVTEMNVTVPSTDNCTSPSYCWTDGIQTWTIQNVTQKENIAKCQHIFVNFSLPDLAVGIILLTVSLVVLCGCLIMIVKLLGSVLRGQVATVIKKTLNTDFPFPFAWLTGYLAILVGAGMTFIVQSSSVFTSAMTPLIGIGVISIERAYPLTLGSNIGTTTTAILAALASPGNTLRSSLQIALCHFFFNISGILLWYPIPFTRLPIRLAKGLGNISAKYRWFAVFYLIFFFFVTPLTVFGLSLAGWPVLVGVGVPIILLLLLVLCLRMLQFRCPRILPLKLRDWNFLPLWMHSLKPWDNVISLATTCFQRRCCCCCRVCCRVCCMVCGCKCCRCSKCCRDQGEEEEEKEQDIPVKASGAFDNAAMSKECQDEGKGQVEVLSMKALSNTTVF
Protocol: (§3) Following transfection, cells were seeded at 50,000 cells/well in conical-bottom 96-well plates and treated with test antibody or antibody-drug conjugate for 24 hours at 4° C. to prevent internalization. […] Following incubation and washing, fluorescence was detected by flow cytometry on a BD LSRFortessa™ Cell Analyzer (BD Biosciences, Franklin Lake, NJ) with 1,000 minimum events collected per well.

cynomolgus monkey NaPi2b = target: T4, cynomolgus monkey NaPi2b (cynomolgus monkey, UniProt O95436 1-690 (human entry)); test: flow cytometry on HEK293-6e cells transfected with cynomolgus monkey NaPi2b, 24 h at 4 C, anti-human IgG Fc AF647
T4 construct: also called Cyno NaPi2b; Cy NaPi2b
T4 chain: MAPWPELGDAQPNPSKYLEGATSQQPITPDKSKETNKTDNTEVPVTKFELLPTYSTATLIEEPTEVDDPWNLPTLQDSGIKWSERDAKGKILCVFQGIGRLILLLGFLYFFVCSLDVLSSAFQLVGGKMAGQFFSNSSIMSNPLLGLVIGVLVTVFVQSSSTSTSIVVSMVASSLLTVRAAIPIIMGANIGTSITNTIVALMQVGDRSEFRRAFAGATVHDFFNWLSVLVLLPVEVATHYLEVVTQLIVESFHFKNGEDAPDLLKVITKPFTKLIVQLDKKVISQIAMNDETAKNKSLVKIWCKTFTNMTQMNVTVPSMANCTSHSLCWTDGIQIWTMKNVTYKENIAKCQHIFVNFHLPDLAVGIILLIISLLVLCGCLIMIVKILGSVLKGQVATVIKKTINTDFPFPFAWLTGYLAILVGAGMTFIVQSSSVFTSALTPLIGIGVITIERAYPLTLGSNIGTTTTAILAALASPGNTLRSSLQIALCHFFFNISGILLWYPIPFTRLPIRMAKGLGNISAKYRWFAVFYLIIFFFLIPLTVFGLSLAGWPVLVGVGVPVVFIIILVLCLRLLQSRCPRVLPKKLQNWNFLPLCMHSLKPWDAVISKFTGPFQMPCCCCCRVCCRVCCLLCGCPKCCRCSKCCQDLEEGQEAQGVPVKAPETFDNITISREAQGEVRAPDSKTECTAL
Protocol: as §3

[7] = target: T1, human sodium-dependent phosphate …; test: flow cytometry on HCC-78 cells (endogenous NaPi2b), 24 h at 4 C, anti-human IgG Fc AF647, APC-A GeoMean
Protocol: (§4) Cells were maintained under standard culture conditions (37° C./5% CO₂) until assay set-up. […] Cells were removed from culture vessels using Cell Dissociation Buffer (Invitrogen, Waltham, MA), seeded at 50,000 cells/well in conical-bottom 96-well plates, and treated with test antibody or antibody-drug conjugate for 24 hours at 4° C. to prevent internalization. […] Following incubation and washing, fluorescence was detected by flow cytometry on a BD LSRFortessa™ Cell Analyzer (BD Biosciences, Franklin Lake, NJ) with 1,000 minimum events collected per well.

[8] = target: T1, human sodium-dependent phosphate …; test: flow cytometry on IGROV-1 cells (endogenous NaPi2b), 24 h at 4 C, anti-human IgG Fc AF647, APC-A GeoMean
Protocol: as §4

[9] = target: T1, human sodium-dependent phosphate …; test: flow cytometry on H441 cells (endogenous NaPi2b), 24 h at 4 C, anti-human IgG Fc AF647, APC-A GeoMean
Protocol: as §4

Biotinylated human FcRn = target: T5, Biotinylated human FcRn (human, UniProt P55899 24-297; P61769 21-119, limits assumed, biotinylated (site not stated)); test: SPR (Biacore T200), biotinylated FcRn on neutravidin, antibody as analyte, pH 5.9, steady-state fit
T5 construct: also called Biotinlated human FcRn; human neonatal fragment crystallizable receptor (FcRn)

[10] = target: T6, human FcγR IIA R131 CD32aR (v5775) (human, UniProt P12318 34-217, limits assumed); test: SPR (Biacore T200), antibody captured on protein A, FcγR as analyte, single-cycle, steady-state fit;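 also: five FcγR concentrations per single cycle, 40 s association then 120 s dissociation, responses corrected against a reference flow cell and blank buffer injections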
T6 construct: In-house reagent
T6 sequence (looked up): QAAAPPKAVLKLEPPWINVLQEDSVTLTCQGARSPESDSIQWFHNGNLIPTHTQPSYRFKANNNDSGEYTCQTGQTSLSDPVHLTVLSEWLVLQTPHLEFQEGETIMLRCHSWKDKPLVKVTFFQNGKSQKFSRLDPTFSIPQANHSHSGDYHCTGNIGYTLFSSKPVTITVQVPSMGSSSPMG
Protocol: (§5) Approximately 400-600 RUs of each antibody (2 μg/mL) were captured on the protein A surface on flow cell 2, 3 and 4 by injecting at 10 μL/min for 60 s. Flow cell 1 was used as a reference surface. […] Each in-house FcγR with five concentrations were flowed as analyte using single-cycle kinetics strategy. The flow rate of FcγRs was 50 L/min with contact time of 40 sec and dissociation time of 120 sec. For the high affinity FcγRI CD64, multicycle kinetics were applied. The flow rate of the analyte was 100 L/min with contact time of 100 sec and dissociation time of 650 sec. Blank buffer control was injected using the same flow rate and contact time for each cycle. Surface regeneration was accomplished using 10 mM glycine-HCl, pH 1.5 (Cytiva©, BR100354) for 30 sec with a flow rate of 50 μL/min after each cycle. Binding constants and the maximum observed binding signal (Rmax) were determined using the Biacore™ T200 Evaluation software (version 3.0; GE Healthcare). For single-cycle kinetics, blank-subtracted sensorgrams were analyzed using steady state affinity fitting model. For multicycle kinetics, results were fit to the 1:1 Langmuir binding model.

[11] = target: T7, human FcγR IIIA V159 CD16aV (v5773) (human, UniProt P08637 17-208, limits assumed); test: as above
T7 construct: In-house reagent
Protocol: as §5

[12] = target: T8, human FcγR IIA H131 CD32aH (v5774) (human, UniProt P12318 34-217, limits assumed); test: as above
T8 construct: In-house reagent
T8 sequence (looked up): T6 sequence (looked up) with R134H
Protocol: as §5

[13] = target: T9, human FcγR IIB Y160 CD32bY (v5777) (human, UniProt P31994 43-217, limits assumed); test: as above
T9 construct: In-house reagent
T9 sequence (looked up): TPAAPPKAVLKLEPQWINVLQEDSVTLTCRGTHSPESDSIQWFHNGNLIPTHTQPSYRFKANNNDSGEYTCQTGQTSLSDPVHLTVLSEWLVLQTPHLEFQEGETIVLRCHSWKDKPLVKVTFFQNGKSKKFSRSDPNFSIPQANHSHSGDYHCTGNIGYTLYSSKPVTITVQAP
Protocol: as §5

[14] = target: T10, human FcγR I CD64 (Sino Biological Inc. 10256-H08H) (human, UniProt P12314 16-288); test: SPR (Biacore T200), antibody captured on protein A, FcγR as analyte, multicycle, 1:1 fit
T10 construct: Bought reagent
T10 sequence (P12314 16-288 limits assumed): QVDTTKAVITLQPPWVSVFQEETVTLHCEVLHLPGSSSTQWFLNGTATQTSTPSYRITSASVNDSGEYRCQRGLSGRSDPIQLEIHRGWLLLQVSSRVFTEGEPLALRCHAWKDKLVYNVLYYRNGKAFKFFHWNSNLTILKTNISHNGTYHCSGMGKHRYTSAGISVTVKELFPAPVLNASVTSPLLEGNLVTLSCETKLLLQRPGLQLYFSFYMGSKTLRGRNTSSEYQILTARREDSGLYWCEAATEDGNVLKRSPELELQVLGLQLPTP
Protocol: as §5

T7 sequence (P08637 17-208 F176V limits assumed): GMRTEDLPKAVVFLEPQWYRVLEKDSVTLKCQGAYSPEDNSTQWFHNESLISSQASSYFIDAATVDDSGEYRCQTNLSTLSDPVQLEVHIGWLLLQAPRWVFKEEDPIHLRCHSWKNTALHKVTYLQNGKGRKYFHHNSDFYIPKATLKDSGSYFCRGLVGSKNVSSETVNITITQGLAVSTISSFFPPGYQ
T5 sequence (P55899 24-297 limits assumed, chain 1 of 2): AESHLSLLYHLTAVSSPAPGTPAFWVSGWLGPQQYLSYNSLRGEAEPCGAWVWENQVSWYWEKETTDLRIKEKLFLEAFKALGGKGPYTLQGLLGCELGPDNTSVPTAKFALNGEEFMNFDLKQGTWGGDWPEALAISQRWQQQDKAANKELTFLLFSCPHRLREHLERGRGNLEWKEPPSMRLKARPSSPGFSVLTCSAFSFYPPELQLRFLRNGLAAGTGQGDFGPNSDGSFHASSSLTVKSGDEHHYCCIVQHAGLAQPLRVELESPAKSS
T5 sequence (P61769 21-119 limits assumed, chain 2 of 2): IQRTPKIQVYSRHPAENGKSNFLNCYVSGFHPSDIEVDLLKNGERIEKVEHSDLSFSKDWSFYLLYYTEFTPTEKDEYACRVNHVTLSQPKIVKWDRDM

B1: v23855 (parental mouse-human chimeric anti-NaPi2b antibody) (antibody, human IgG1, kappa, V domains shown)
VH: QAYLQQSGAELVRPGASVKMSCKASGFTFTSYNVHWVKQTPRQGLEWIAAISPGNGDLSYNQRFKDKATLTVDRSSSTAYMQLSGLTSEDSAVYFCARGRTGMGAVDYWGQGTSVTVSS
VL: DVQMTQTASSLSASLGDRVTISCRASQDVYSYLNWYQQKPHGTVKLLIYYTSRLQSGVPSRFTGSGSGTDYSLTISNLEPEDIATYYCQQYNIFPWTFGGGTKLEIKR
notes: IgG1/kappa full-size antibody; also called parental chimeric
Bmax [1]: 43700
Kd [2]: 0.84 nM
EC50 (read off the curve) [3]: ~0.8 nM
NS-ELISA binding score (signal over buffer well) [4]: 2.38

B2: v38591-MC-GGFG-AM-Compound 139 DAR 8 (antibody, human IgG1, kappa)
heavy: not shown
light: DVQMTQSPSSLSASVGDRVTITCRASQDVYSYLNWYQQKPGKAVKLLIYYTSRLQSGVPSRFSGSGSGTDYTLTISSLQPEDFATYYCQQYNIFPWTFGQGTKLEIKRTVAAPSVFIFPPSDEQLKSGTASVVCLLNNFYPREAKVQWKVDNALQSGNSQESVTEQDSKDSTYSLSSTLTLSKADYEKHKVYACEVTHQGLSSPVTKSFNRGEC
modifications: as above; MC-GGFG-AM-Compound 139 drug-linker on cysteines freed by TCEP reduction; sites not stated; DAR 8
notes: Antibody-drug conjugate of v38591; also called v38593
EC50 (read off the curve) [5]: ~2 nM
EC50 (read off the curve) [6]: ~3 nM
EC50 (read off the curve) (mouse NaPi2b): ~0.6 nM
EC50 (read off the curve) (cynomolgus monkey NaPi2b): ~0.5 nM

B3: v38591-MC-GGFG-AM-Compound 139 DAR 4 (antibody, human IgG1, kappa)
heavy: not shown
light: B2 light
modifications: as above; MC-GGFG-AM-Compound 139 drug-linker on cysteines freed by TCEP reduction; sites not stated; DAR 4
notes: Antibody-drug conjugate of v38591
EC50 (read off the curve) [5]: ~2 nM
EC50 (read off the curve) [7]: ~3 nM
EC50 (read off the curve) [6]: 2 to 3 nM
EC50 (read off the curve) [8]: ~2 nM
EC50 (read off the curve) [9]: ~0.6 nM
EC50 (read off the curve) (cynomolgus monkey NaPi2b): ~0.4 nM

B4: v40554 (LALA) anti-NaPi2b antibody (antibody)
chain 1: not shown
chain 2: B2 light
Binding percentage (Biotinylated human FcRn): 27%
Kd (Biotinylated human FcRn): 132 nM
Binding percentage [10]: 58%
Kd [10]: 29300 nM
Binding percentage [11]: 41.5%
Kd [11]: 4020 nM
Binding percentage [12]: 63.8%
Kd [12]: 29200 nM
Binding percentage [13]: 53.2%
Kd [13]: 48700 nM
Binding percentage [14]: 6.4%
Kd [14]: 3.79 nM

B5: v18992 (MX35)-DL2 (antibody, human IgG1, kappa)
heavy 1: GQVQLVQSGAEVVKPGASVKMSCKASGYTFTGYNIHWVKQAPGQGLEWIGAIYPGNGDTSYKQKFRGRATLTADTSTSTVYMELSSLRSEDSAVYYCARGETARATFAYWGQGTLVTVSSASTKGPSVFPLAPSSKSTSGGTAALGCLVKDYFPEPVTVSWNSGALTSGVHTFPAVLQSSGLYSLSSVVTVPSSSLGTQTYICNVNHKPSNTKVDKKVEPKSCDKTHTCPPCPAPELLGGPSVFLFPPKPKDTLMISRTPEVTCVVVDVSHEDPEVKFNWYVDGVEVHNAKTKPREEQYNSTYRVVSVLTVLHQDWLNGKEYKCKVSNKALPAPIEKTISKAKGQPREPQVYVYPPSRDELTKNQVSLTCLVKGFYPSDIAVEWESNGQPENNYKTTPPVLDSDGSFALVSKLTVDKSRWQQGNVFSCSVMHEALHNHYTQKSLSLSPG
heavy 2: not shown
light: GDIQMTQSPSSLSASVGDRVTITCSASQDIGNFLNWYQQKPGKTVKVLIYYTSSLYSGVPSRFSGSGSGTDYTLTISSLQPEDFATYYCQQYSKLPLTFGQGTKLELKRTVAAPSVFIFPPSDEQLKSGTASVVCLLNNFYPREAKVQWKVDNALQSGNSQESVTEQDSKDSTYSLSSTLTLSKADYEKHKVYACEVTHQGLSSPVTKSFNRGEC
modifications: as above; maleimide functionalized auristatin drug linker (DL2); sites and DAR not stated
notes: also called MX35-DL2 ADC
Bmax [1]: 41200
Kd [2]: 1.22 nM
EC50 (read off the curve) [3]: 1 to 1.7 nM
